Screen value data for one variant are collected here from PMC2670979 (2009).

B1: GST-Miro1 WT [not stated] / TRAK2 (amino acids 476–700) [modified: 35S-methionine label; 35S-methionine label] [not stated] (parent complex)
chain 1: MKKDVRILLVGEPRVGKTSLIMSLVSEEFPEEVPPRAEEITIPADVTPERVPTHIVDYSEAEQSDEQLHQEISQANVICIVYAVNNKHSIDKVTSRWIPLINERTDKDSRLPLILVGNKSDLVEYSSMETILPIMNQYTEIETCVECSAKNLKNISELFYYAQKAVLHPTGPLYCPEEKEMKPACIKALTRIFKISDQDNDGTLNDAELNFFQRICFNTPLAPQALEDVKNVVRKHISDGVADSGLTLKGFLFLHTLFIQRGRHETTWTVLRRFGYDDDLDLTPEYLFPLLKIPPDCTTELNHHAYLFLQSTFDKHDLDRDCALSPDELKDLFKVFPYIPWGPDVNNTVCTNERGWITYQGFLSQWTLTTYLDVQRCLEYLGYLGYSILTEQESQASAVTVTRDKKIDLQKKQTQRNVFRCNVIGVKNCGKSGVLQALLGRNLMRQKKIREDHKSYYAINTVYVYGQEKYLLLHDISESEFLTEAEIICDVVCLVYDVSNPKSFEYCARIFKQHFMDSRIPCLIVAAKSDLHEVKQEYSISPTDFCRKHKMPPPQAFTCNTADAPSKDIFVKLTTMAMYPHVTQADLKSSTFWLRASFGATVFAVLGFAMYKALLKQR
chain 2: EDSDLATALHRLSLRRQNYLSEKQFFAEEWERKLQILAEQEEEVSSCEALTENLASFCTDQSETTELGSAGCLRGFMPEKLQIVKPLEGSQTLHHWQQLAQPNLGTILDPRPGVITKGFTQMPKDAVYHISDLEEDEEVGITFQVQQPLQLEQKPAPPPPVTGIFLPPMTSAGGPVSVATSNPGKCLSFTNSTFTFTTCRILHPSDITQVTPSSGFPSLSCGSSA

The variants in the experiment derive from B1. The experiment can be described thus: GST pull-down of in vitro translated 35S-labeled protein; 2 mM Ca2+; normalized to 100 at 0 mM Ca2+; parent: 110; read off a plot.
As to chain 1 E208K, chain 1 E328K, the screen value is approximately 120.
